Test results as given in the supplement of paper PMC7125110.
± gives the standard error. For part of these data: Variants at the floor of the assay were thinned out.

B1: glmS ribozyme (parent)
chain: AUAAAAGCGCCAGAACUACAGAAAUGUAGUUGACGAGGAGGAGGUUUAUCGAAUUUUCGGCGGAUGCCUCCAAA

Tests used:
Settings in all cases: with glucosamine-6-phosphate
glucosamine-6-phosphate [1] = variants of: B1; assay: kcat; higher = faster cleavage; RNA array
Outline: (§1)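 Ribozyme variants carrying barcodes were transcribed in situ on sequenced MiSeq chips by E. coli RNA polymerase and tracked at 37 °C with a hybridised Cy3 probe. They were exposed to 40 μM to 10 mM glucosamine-6-phosphate in HEPES/KCl/Mg(OAc)2 buffer. kobs came from exponential decay fits of normalised per-tile medians, and kcat and KM from weighted Michaelis–Menten fits.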

glucosamine-6-phosphate [2] = variants of: B1; assay: self-cleavage kobs at 640 uM GlcN6P; higher = faster cleavage; RNA array
Outline: as §1

glucosamine-6-phosphate [3] = variants of: B1; assay: self-cleavage kobs at 2500 uM GlcN6P; higher = faster cleavage; RNA array
Outline: as §1

glucosamine-6-phosphate [4] = variants of: B1; assay: KM; higher = weaker cofactor use; RNA array
Outline: as §1

glucosamine-6-phosphate [5] = variants of: B1; assay: self-cleavage kobs at 10000 uM GlcN6P; higher = faster cleavage; RNA array
Outline: as §1

glucosamine-6-phosphate [6] = variants of: B1; assay: self-cleavage kobs at 40 uM GlcN6P; higher = faster cleavage; RNA array
Outline: as §1

glucosamine-6-phosphate [7] = variants of: B1; assay: self-cleavage kobs at 160 uM GlcN6P; higher = faster cleavage; RNA array
Outline: as §1

Variant | kcat (glucosamine-6-phosphate [1]) | self-cleavage kobs at 640 uM GlcN6P (glucosamine-6-phosphate [2]) | self-cleavage kobs at 2500 uM GlcN6P (glucosamine-6-phosphate [3]) | KM (glucosamine-6-phosphate [4]) | self-cleavage kobs at 10000 uM GlcN6P (glucosamine-6-phosphate [5]) | self-cleavage kobs at 40 uM GlcN6P (glucosamine-6-phosphate [6]) | self-cleavage kobs at 160 uM GlcN6P (glucosamine-6-phosphate [7])
AUAAAAGCGCCAGAACUACAGAAAUGUAGUUGACGAGGAGGAGGUUUAUCGAAUUUGCGGCGGAUGCCUCAAAA [U57G C71A] | 3.11e-05 ± 9.7e-06 s⁻¹ | 4.65e-05 ± 1.5e-05 s⁻¹ | 3.2e-05 ± 1.5e-05 s⁻¹ | – | – | – | –
AUAAAAGCGCCAUAACUACAGAAAUGUAGUUGACGAGGAGGAGGUUUAUCGAAUUUUCGGCGGCUGCCUCCAAA [G13U A64C] | 1.02e-05 ± 3e-06 s⁻¹ | – | – | – | – | – | –
AUAAAAGCGCCAGAACUACAGAAAUGUAGUUGACGAGGAGGAGGUUUAUCGAAUGUUCGACGGAUGCCUCCAAA [U55G G60A] | 2.4e-05 ± 6.2e-07 s⁻¹ | – | – | 1810 ± 130 µM | – | – | –
AUAAAAGCGCCAGAACUACAGAAAUGUAGUUGACGAGGAGGAGGUUUAUCGAAUGUUCGGCGGUUGCCUCCAAA [U55G A64U] | 0.000152 ± 1.9e-05 s⁻¹ | – | 6.75e-05 ± 8.7e-06 s⁻¹ | 3480 ± 950 µM | 0.00011 ± 1.4e-05 s⁻¹ | – | –
AUAAAAGCGCCAGAACUACAGAAAUGUAGUUGACGAGGAGGAGGUUUAUCGAACUUUCGGCGGACGCCUCCAAA [U54C U65C] | 0.000618 ± 0.00021 s⁻¹ | 0.000249 ± 6.5e-05 s⁻¹ | 0.000743 ± 0.00016 s⁻¹ | – | 0.000465 ± 0.00013 s⁻¹ | – | –
AUAAACGCGCCAGAACUACAGAAAUGUAGAUGACGAGGAGGAGGUUUAUCGAAUUUUCGGCGGAUGCCUCCAAA [A6C U30A] | < 1e-05 s⁻¹ | – | – | – | – | < 1e-05 s⁻¹ | < 1e-05 s⁻¹
AUAAACGCGCCAGAACUACAGAAAUGUAGUUGACGAGGAGGAGGUUUAUCGAAUUUUCGGCGGAUGCCUCAAAA [A6C C71A] | 2.27e-05 ± 4.2e-07 s⁻¹ | – | – | 205 ± 38 µM | 2.19e-05 ± 1.1e-05 s⁻¹ | – | –
AUAAAAGCGGCAGAACUACAGAAAUGUAGUUGACGAGGAGGAGGUAUAUCGAAUUUUCGGCGGAUGCCUCCAAA [C10G U46A] | < 1e-05 s⁻¹ | < 1e-05 s⁻¹ | < 1e-05 s⁻¹ | – | – | – | –
AUAAAAGCGCCAGAACUACAGAAAUGUAGUUGACGAGGUGGAGGUUUAUCAAAUUUUCGGCGGAUGCCUCCAAA [A39U G51A] | < 1e-05 s⁻¹ | – | – | – | < 1e-05 s⁻¹ | < 1e-05 s⁻¹ | < 1e-05 s⁻¹
AUAAAAGCGCCAGAACUACAGAAAUGUAGUUGACGAGGAGGAUGUUUAUCGAAUUUUCGGCGGAUGCCUUCAAA [G43U C70U] | 2.12e-05 ± 3.3e-06 s⁻¹ | – | 2.17e-05 ± 8.6e-06 s⁻¹ | – | – | < 1e-05 s⁻¹ | < 1e-05 s⁻¹
AUAAAAGCGCCAGAACUACAGAAAUGUAGUUGACGAGGAUGAGGUAUAUCGAAUUUUCGGCGGAUGCCUCCAAA [G40U U46A] | 0.000471 ± 0.00012 s⁻¹ | 6.83e-05 ± 2.4e-05 s⁻¹ | 0.00028 ± 5.4e-05 s⁻¹ | 2940 ± 1400 µM | 0.000331 ± 7.2e-05 s⁻¹ | – | –
AUAAAAGCGCCAGAACUACAGAAAUGUAGUUGACGACGAGGAGGUUGAUCGAAUUUUCGGCGGAUGCCUCCAAA [G37C U47G] | 1.63e-05 ± 2.9e-06 s⁻¹ | – | – | – | – | – | –
AUAAAAGCGCCAGAACUACAGAAAUGUAGUUGACGAGGAGGCGGUUUAUCGAAUUUUCGGCGGAUGCCCCCAAA [A42C U69C] | 0.000251 ± 7e-05 s⁻¹ | 0.000126 ± 2.7e-05 s⁻¹ | 0.000165 ± 6.2e-05 s⁻¹ | – | 0.000346 ± 0.00013 s⁻¹ | – | –
AUAAAAGCGCCAGAACUACAGAAAUGUAGUUGACGAGGAGGAGGUUUAUCGAAUUUUAGGCGGAUGCCUCAAAA [C58A C71A] | 5.74e-05 ± 1e-05 s⁻¹ | 3.29e-05 ± 1.3e-05 s⁻¹ | 7.33e-05 ± 1.5e-05 s⁻¹ | – | 4.88e-05 ± 9.7e-06 s⁻¹ | – | –
AUAAAAGCGCAAGAACUACAGAAAUGUAGUUGACGAGGAGGAGGUUUAUCGAUUUUUCGGCGGAUGCCUCCAAA [C11A A53U] | 0.000128 ± 2.5e-06 s⁻¹ | – | 6.02e-05 ± 1.6e-05 s⁻¹ | 2860 ± 180 µM | 9.96e-05 ± 1.2e-05 s⁻¹ | – | –
AUAAAAGCGCCAGAACUACAGAAAUGUAGUUGACGAGCAGGAGGUUUAGCGAAUUUUCGGCGGAUGCAUCCAAA [G38C U49G C68A] | 1.34e-05 ± 4.6e-06 s⁻¹ | – | – | – | – | – | –
AUAAAAGCGCCAGAACUACAGAAAUGUAGUUGACGAGGAGGAGGUUUAUCGAAGUUUCUGCGGAUGCCUCCAAA [U54G G59U] | 3.86e-05 ± 1.5e-06 s⁻¹ | – | 3.03e-05 ± 9.3e-06 s⁻¹ | 544 ± 170 µM | 3.71e-05 ± 6.4e-06 s⁻¹ | – | –
AUAAAUGCGCCAGAAGUACAGAAAUGUAGUUGACGAGGAGGAGGUUUAUCGAAUAUUCGGCGGAUGCCUCCAAA [A6U C16G U55A] | 1.73e-05 ± 5.1e-06 s⁻¹ | – | – | – | – | – | –
AUAAAAGCGCCAGAACUACAGAAAUGUAGUUUACGAGGAGGAGGUUUAUCGAAUGAUCGGCGGAUGCCUCCAAA [G32U U55G U56A] | 0.000802 ± 4.9e-05 s⁻¹ | 8.29e-05 ± 1.1e-05 s⁻¹ | 0.000255 ± 4.3e-05 s⁻¹ | 5530 ± 450 µM | 0.000509 ± 0.00011 s⁻¹ | – | –
AUAAAAGCGCCAGAACUACAGAAAUGUAGGUGACGAGGAGGAGGUUUAUCGAAUUUUCGGCGGCUGCCUCCAAA [U30G A64C] | 5.41e-05 ± 5.3e-06 s⁻¹ | – | – | 4950 ± 1100 µM | 3.61e-05 ± 1.5e-05 s⁻¹ | – | –
AUAAAAGCGCCAGAACUACAGAAAUGUACUUGACGAGGCGGAGGUUUAUCGAAUUUUCGGCGGAUGCCUCCAAA [G29C A39C] | 0.000582 ± 8.5e-05 s⁻¹ | 7.25e-05 ± 1.1e-05 s⁻¹ | 0.000212 ± 3e-05 s⁻¹ | 4360 ± 1100 µM | 0.000406 ± 4.2e-05 s⁻¹ | – | 6.14e-05 ± 2.9e-05 s⁻¹
AUAAAAGCGCCAGAACUACAGAAAUGUAGUUGACGAGGAGGAGGUUUAUCUAAUUUUCGCCGGAUGCAUCCAAA [G51U G60C C68A] | 2.85e-05 ± 8.6e-06 s⁻¹ | – | – | – | – | – | –
AUAAAAGCGCCAGAACUACAGAAAUGUAGUUGACGAGGAGGAGGUUUCUCGAAGUUUCGGCGGAUGCCUCCAAA [A48C U54G] | 0.000498 ± 0.00012 s⁻¹ | 0.000114 ± 1.4e-05 s⁻¹ | 0.000222 ± 2.4e-05 s⁻¹ | 2740 ± 1200 µM | 0.000402 ± 5e-05 s⁻¹ | – | –
